Key:
[1] = biological target: T1, Subtilisin-treated microtubules (lacking the C-terminal tails of α- and β-tubulin) (bovine, UniProt Q6B856 1-445, Purified bovine brain tubulin is an isotype mixture; the representative isotypes alpha-1B and beta-2B are assumed, as the paper states none. Cleavage limits are not given; the conventional major sub); assay: co-sedimentation; 2 μM kinesin, 0–4 μM paclitaxel-stabilised microtubules, no added nucleotide, high ionic strength (88 mM; ATPase buffer with 75 mM KCl), 298 K, 100,000 × g 30 min; supernatant and pellet by SDS-PAGE; apparent constants, fit to Equation 3; conditions: both partners purified
T1 sequence (chain, as listed by the source, chain 1 of 2): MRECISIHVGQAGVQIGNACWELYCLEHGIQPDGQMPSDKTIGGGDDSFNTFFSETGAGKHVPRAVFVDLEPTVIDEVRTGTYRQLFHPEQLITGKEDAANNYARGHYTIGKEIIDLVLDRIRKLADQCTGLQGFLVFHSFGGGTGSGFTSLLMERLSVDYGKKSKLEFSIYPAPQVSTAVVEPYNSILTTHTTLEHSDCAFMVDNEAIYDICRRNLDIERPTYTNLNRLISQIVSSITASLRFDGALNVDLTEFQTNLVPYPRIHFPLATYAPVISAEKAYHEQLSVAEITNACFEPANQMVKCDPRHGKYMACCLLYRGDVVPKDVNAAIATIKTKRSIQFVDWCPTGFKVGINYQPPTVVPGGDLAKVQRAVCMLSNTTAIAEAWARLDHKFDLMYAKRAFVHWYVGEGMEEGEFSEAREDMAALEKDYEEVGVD
T1 sequence (Q6B856 1-433, chain 2 of 2): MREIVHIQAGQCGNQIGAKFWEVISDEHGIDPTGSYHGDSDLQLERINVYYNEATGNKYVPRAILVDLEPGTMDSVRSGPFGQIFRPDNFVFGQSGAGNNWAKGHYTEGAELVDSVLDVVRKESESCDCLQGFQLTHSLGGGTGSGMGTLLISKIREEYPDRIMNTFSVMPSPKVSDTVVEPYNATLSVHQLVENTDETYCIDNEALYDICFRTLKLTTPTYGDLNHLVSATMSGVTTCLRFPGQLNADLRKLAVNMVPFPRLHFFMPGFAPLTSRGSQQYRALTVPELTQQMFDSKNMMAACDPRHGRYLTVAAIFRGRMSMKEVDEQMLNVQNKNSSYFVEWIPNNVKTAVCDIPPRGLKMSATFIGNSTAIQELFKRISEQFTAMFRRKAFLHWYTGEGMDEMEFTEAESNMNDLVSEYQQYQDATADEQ

[2] = biological target: T1, Subtilisin-treated microtubules …; assay: co-sedimentation; 2 μM kinesin, 0–4 μM paclitaxel-stabilised microtubules, no added nucleotide, low ionic strength (21 mM; ATPase buffer with 7.5 mM KCl), 298 K, 100,000 × g 30 min; supernatant and pellet by SDS-PAGE; apparent constants, fit to Equation 3; conditions: both partners purified

stoichiometry N [1]: 2.2 ± 0.2
stoichiometry N [2]: 5.4 ± 0.4
B1: Cin8-trx (Cin8 motor domain, residues 70–535, fused to N-terminal thioredoxin (TrxA), His6, TEV cleavage and Arg9 tags) (domain or fragment, S. cerevisiae, UniProt P27895 70-535, looked up)
chain: ISINTTGDTGITAQMNAKRYTVDKVFGPGASQDLIFDEVAGPLFQDFIKGYNCTVLVYGMTSTGKTYTMTGDEKLYNGELSDAAGIIPRVLLKLFDTLELQQNDYVVKCSFIELYNEELKDLLDSNSNGSSNTGFDGQFMKKLRIFDSSTANNTTSNSASSSRSNSRNSSPRSLNDLTPKAALLRKRLRTKSLPNTIKQQYQQQQAVNSRNNSSSNSGSTTNNASSNTNTNNGQRSSMAPNDQTNGIYIQNLQEFHITNAMEGLNLLQKGLKHRQVASTKMNDFSSRSHTIFTITLYKKHQDELFRISKMNLVDLAGSENINRSGALNQRAKEAGSINQSLLTLGRVINALVDKSGHIPFRESKLTRLLQDSLGGNTKTALIATISPAKVTSEETCSTLEYASKAKNIKNKPQLGSFIMKDILVKNITMELAKIKSDLLSTKSKEGIYMSQDHYKNLNSDLESYKN
notes: Kinesin-5 Cin8, S. cerevisiae, motor domain, residues 70–535; Expected mass 67.3 kDa; source: E. coli B834(DE3) with pRILP, purified (SP-Sepharose, nickel-nitrilotriacetic acid, Sephadex G-25); not shown: thioredoxin (TrxA), N-terminal, kept; His6, N-terminal, kept; TEV cleavage tag, N-terminal, kept; Arg9, N-terminal, kept
